{"source": "ChEMBL document CHEMBL1122882", "about": "“3,4-O-diacetylisoproterenol. Preparation, structure proof, and beta-receptor effect” (1985)", "key": {"[1]": {"system": "CC(=O)Oc1ccc(C(O)CNC(C)C)cc1OC(C)=O", "conditions": "Cerebral cortex", "description": "(§1) Evaluated for the affinity in stimulating cAMP synthesis by beta-1 adrenergic receptor in rat cerebral cortex."}, "[2]": {"system": "CC(=O)Oc1ccc(C(Cl)CNC(C)C)cc1OC(C)=O", "conditions": "Cerebral cortex", "description": "as §1"}}, "data": [{"substance": "Beta-1 adrenergic receptor (Rattus norvegicus), P18090", "values": [{"measurement": "Km", "setting": "[1]", "value": 25, "unit": "µM"}, {"measurement": "Km", "setting": "[2]", "value": 28, "unit": "µM"}]}]}
